Assay results reported in patent US20220218001A1, “REDOX ENZYMES IN ANIMAL FEED COMPOSITIONS” (Novozymes A/S, priority 2019, published 2022).

Molecular target: T1, pepsin (Sus scrofa, UniProt P00791)
T1 construct: purchased Sigma P7000; host or cells: porcine gastric mucosa (natural source)
Test: Gastric stability of superoxide dismutases (method of Example 10, gastric treatment with pepsin)
Format: in vitro ADME
Method: retains only 26% of its activity upon gastric treatment in the presence of pepsin.
Two commercial SODs were tested as references: SOD-Mn, from E. coli Sigma S5639 with a activity of 10240 U/mg EP and only 26% activity left after gastric press for 30 min; and SOD-Cu/Zn from Bovine expressed in E. coli Sigma S9697 with activity of 6108 U/mg EP and only 35% activity left after gastric press for 30 min.

T1 sequence (P00791 60-385): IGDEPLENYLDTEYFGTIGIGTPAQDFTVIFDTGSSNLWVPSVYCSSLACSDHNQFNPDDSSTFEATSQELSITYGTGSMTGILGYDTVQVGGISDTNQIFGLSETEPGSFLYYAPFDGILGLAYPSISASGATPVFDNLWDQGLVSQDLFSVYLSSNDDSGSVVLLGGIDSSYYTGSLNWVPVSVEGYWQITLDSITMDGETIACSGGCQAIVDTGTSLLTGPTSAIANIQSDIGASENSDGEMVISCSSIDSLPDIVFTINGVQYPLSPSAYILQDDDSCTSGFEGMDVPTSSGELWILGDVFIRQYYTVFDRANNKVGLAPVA

Molecule | activity retained under gastric stability studies
SEQ ID NO 18: superoxide dismutase from Cladobotryum sp. (protein, Cladobotryum sp) MARQGLFLASLLIFPFASCAASEDPTGSKPQFASIPDSQQALLGSFSSTMSVSTFSLPALPYAYDALEPSISAQIMELHHSKHHQTYVNNLNNALKSYFVAISANDVPSQIALQAAVKFNGGGHINHSLFWENLCPATSPDADPQSAPTLAAEISKTWGSLEGFKDAMSKALLGLQGSGWGWLVKDGRALRIVTTKDQDPVVGGEVPIFGIDMWEHAYYLQYLNGKAAYVENIWKVINWKTAERRFIGDRDDAFKILKASI | at least 40%
SEQ ID NO 37: superoxide dismutase; donor Trichoderma sp-54723 in b755, Trichoderma rossicum in b566 (protein, listed as Trichoderma rossicum) MRASGILAVLSLAVSGCIAEKDAPIVTGNPHSVEYKATLPKKPFFSNAALVGNVKGYVSAVAAPSGKGVRFSVQFENFPKSGGPFMYHIHEEPATNGNCTSTLAHLDPYHRGETPACDSSKPETCQVGDLSGKYGKITSDPFVAEYFDLYTSLQPGSPAFFGNRSIVVHYANKTRLTCANFAKLPVSDTATKAHTTTSAHHTVIHGPAASGGRHNTTSSHNITGPHYTTGSHHTTDVSPTGSLNPTGIVTAPGSPTTPATFTTVAAGGSASATSSIVPFPGAASGNRVSLALLSGVVAAMFFSL | at least 40%
